Series [1] deals with T1, CNBP (Homo sapiens, UniProt P62633 1-177). Nature of the series: EMSA. For orientation: A gel shift assay detects complexes by their altered migration in electrophoresis.
In series [2] the target is T1, CNBP. Kind of series: EMSA. The source holds these as a separate data set.

Where two headings read alike, the source gives them in different places.

T1 sequence (P62633 whole entry): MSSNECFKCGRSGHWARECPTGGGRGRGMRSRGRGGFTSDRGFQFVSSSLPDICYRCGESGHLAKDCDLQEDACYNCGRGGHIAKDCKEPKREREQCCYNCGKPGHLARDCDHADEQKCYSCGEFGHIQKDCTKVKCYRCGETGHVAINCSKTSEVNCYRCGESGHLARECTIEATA

B1: C14 (ssDNA)
DNA: GAGGGGGAGGGGGG
Take B1: the binding result with CNBP [1] is reported as “binds”.

B2: TG4T (single strand) (ssDNA)
DNA: TGGGGT
Regarding B2, in the series with CNBP [2], the binding result was “no binding”.

These data come from article PMC6735679.
